Data taken from the supplement of paper PMC11136658.

Test system: peptide library, one residue held at a place counted from the Y acceptor
Assay: relative phosphorylation of the sub-library (ratio to the mean residue at this position); higher = residue favoured
Summary of the method: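 Within 384-well plates, purified recombinant kinases phosphorylated biotinylated Tyr-centred peptide library mixtures over 90 min using 50 μM ATP spiked with γ-32P-ATP; each mixture fixed one residue at one position from −5 to +5. Streptavidin membrane capture, rinsing, phosphorimaging and ImageQuant gave the intensities. These were normalized per position to the sum of the 18 randomized residues (16 for the Ser/Thr-free library) and multiplied by that number.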

Sequence of EPHA8, construct: aa571-924, human (P29322 571-924, looked up): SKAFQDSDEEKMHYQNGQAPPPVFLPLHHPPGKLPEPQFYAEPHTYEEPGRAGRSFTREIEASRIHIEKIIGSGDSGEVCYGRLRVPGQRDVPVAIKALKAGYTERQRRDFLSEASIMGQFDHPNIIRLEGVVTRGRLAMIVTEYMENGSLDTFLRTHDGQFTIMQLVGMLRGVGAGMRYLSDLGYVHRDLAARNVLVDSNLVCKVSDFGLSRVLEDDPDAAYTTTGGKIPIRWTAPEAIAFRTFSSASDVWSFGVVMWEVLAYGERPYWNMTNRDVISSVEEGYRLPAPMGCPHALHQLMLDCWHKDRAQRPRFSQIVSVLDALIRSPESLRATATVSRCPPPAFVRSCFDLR
Sequence of EPHA6, construct: aa683-end, human (Q9UF33 683-1036, looked up): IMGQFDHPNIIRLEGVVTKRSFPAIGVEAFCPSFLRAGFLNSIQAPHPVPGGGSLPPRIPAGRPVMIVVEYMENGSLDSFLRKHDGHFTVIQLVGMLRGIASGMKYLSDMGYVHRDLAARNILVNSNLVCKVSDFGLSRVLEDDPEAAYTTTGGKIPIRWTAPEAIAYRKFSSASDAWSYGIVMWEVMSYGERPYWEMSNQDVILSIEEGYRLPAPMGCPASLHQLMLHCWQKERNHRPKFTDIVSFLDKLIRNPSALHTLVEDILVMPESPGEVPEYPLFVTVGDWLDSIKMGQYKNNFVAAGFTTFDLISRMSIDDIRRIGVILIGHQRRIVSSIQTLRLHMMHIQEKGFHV
Sequence of EPHA7, construct: aa579-end, human (Q15375 579-998, looked up): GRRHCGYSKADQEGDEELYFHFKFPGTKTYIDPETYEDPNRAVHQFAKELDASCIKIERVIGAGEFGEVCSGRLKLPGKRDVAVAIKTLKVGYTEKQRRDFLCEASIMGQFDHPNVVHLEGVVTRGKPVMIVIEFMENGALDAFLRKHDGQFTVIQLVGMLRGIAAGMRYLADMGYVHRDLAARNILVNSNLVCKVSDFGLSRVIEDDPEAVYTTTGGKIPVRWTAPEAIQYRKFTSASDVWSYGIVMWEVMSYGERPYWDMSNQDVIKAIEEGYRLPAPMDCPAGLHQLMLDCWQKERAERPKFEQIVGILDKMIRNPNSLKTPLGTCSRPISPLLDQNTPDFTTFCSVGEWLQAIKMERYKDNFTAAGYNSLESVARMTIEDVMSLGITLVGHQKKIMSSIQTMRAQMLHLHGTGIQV

EPHA6, construct: aa683-end, human (from UniProt Q9UF33)
relative phosphorylation
Conditions	at +1	at +2	at +3	at +4	at +5	at -1	at -2	at -3	at -4	at -5
A fixed	1.7	0.891	0.971	1.03	0.87	0.838	1.39	0.94	1.57	1.47
D fixed	0.944	1.3	0.585	0.688	0.91	2.67	1.15	1.18	0.754	0.894
E fixed	2.3	1.3	0.541	0.818	0.966	1.73	1.22	1.36	1.03	0.788
F fixed	0.862	1.19	0.94	1.06	1.12	0.701	0.668	1.09	0.859	0.811
G fixed	0.699	0.438	0.61	1.12	0.966	0.427	0.758	0.853	1.27	1.22
H fixed	0.72	1.13	1.03	1.15	1.24	0.733	0.886	1.01	0.973	1.21
I fixed	1.02	0.984	1.93	1	0.811	1.92	0.966	1.5	1.3	0.707
K fixed	0.62	1.03	0.901	1.06	1.04	0.593	1.17	0.842	0.944	1.15
L fixed	0.792	0.964	1.56	0.86	0.92	1.29	1.07	0.873	0.847	0.703
M fixed	1.08	0.917	1.26	0.988	0.955	0.737	0.85	0.943	0.881	0.802
N fixed	0.649	1.04	0.522	0.74	0.947	1.61	0.922	0.818	0.754	0.982
P fixed	0.352	0.594	1.05	1.29	1.03	0.504	1.2	0.876	1.15	1.03
Q fixed	1.31	0.779	0.716	0.882	0.942	0.535	1.02	0.735	0.942	0.998
R fixed	0.916	1.3	1.06	1.27	1.09	0.63	1.3	1.01	1.05	1.45
S fixed	0.808	0.748	0.684	0.848	0.993	0.535	1.21	0.951	0.826	0.949
T fixed	0.678	0.703	0.673	0.794	0.979	0.798	0.84	0.893	0.755	0.91
V fixed	1.54	1.06	1.64	1.08	0.85	1.2	0.781	1.11	1.2	0.954
W fixed	1	1.64	1.32	1.32	1.36	0.528	0.605	1.01	0.894	0.981
pThr fixed	1.37	1.63	0.624	0.561	0.816	2.9	1.03	0.842	0.799	0.686
pTyr fixed	1.48	3.8	0.659	0.576	1.01	2.12	0.946	0.911	0.73	0.677

EPHA7, construct: aa579-end, human (from UniProt Q15375)
relative phosphorylation
Conditions	at +1	at +2	at +3	at +4	at +5	at -1	at -2	at -3	at -4	at -5
A fixed	1.63	0.698	0.618	0.79	1.04	0.492	1.21	0.817	1.18	1.03
D fixed	0.804	1.37	0.44	0.936	0.981	2.01	1.07	1.12	1.17	1.05
E fixed	3	1.79	0.398	1.01	1.04	1.39	1.31	1.43	1.14	0.918
F fixed	0.661	1.31	1.7	1.08	1.13	0.92	0.747	1.48	1.07	1.03
G fixed	0.476	0.39	0.464	1.21	1.12	0.251	1.15	0.953	1.34	1.19
H fixed	0.495	0.916	0.855	1.29	0.953	0.625	0.779	1.06	0.852	0.96
I fixed	1.65	1.04	2.77	0.729	0.818	2.61	0.88	1.08	0.939	1.04
K fixed	0.271	0.522	0.329	0.822	0.809	0.3	0.926	0.591	0.875	0.993
L fixed	0.905	0.894	1.97	0.718	1.03	2.03	0.845	0.944	1.11	0.96
M fixed	1.41	0.935	1.15	1.03	0.988	0.872	0.663	0.913	0.883	0.921
N fixed	0.429	1.21	0.479	0.793	0.815	1.99	0.985	0.995	0.772	1.1
P fixed	0.204	0.609	0.93	1.4	1.64	0.346	1.51	1.15	1.33	1.11
Q fixed	1.08	0.742	0.692	0.778	0.782	0.439	1.09	0.706	1.04	0.94
R fixed	0.358	0.924	0.455	1.03	0.859	0.489	1.05	0.759	0.945	1.1
S fixed	0.725	0.769	0.537	0.853	0.994	0.457	1.26	0.877	0.784	0.834
T fixed	0.803	0.994	0.615	0.904	1.01	1.1	0.921	0.895	0.673	0.851
V fixed	2.03	1.04	2.05	0.733	0.797	1.1	0.936	0.876	0.822	0.831
W fixed	1.06	1.84	1.55	1.89	1.19	0.569	0.67	1.36	1.07	1.15
pThr fixed	1.8	2.11	0.552	0.851	0.651	2.07	0.877	0.772	0.877	0.834
pTyr fixed	1.98	6.7	0.866	1.14	0.865	1.94	0.896	1.02	1.08	1.12

EPHA8, construct: aa571-924, human (from UniProt P29322)
relative phosphorylation
Conditions	at +1	at +2	at +3	at +4	at +5	at -1	at -2	at -3	at -4	at -5
A fixed	1.46	0.773	0.757	0.81	1.11	0.454	1.15	0.671	1.11	0.971
D fixed	0.978	1.49	0.359	0.911	1.19	1.98	1.35	1.49	1.48	1.17
E fixed	2.64	1.84	0.346	1.02	1.34	2.03	1.77	2.17	1.74	1.13
F fixed	0.777	1.38	1.62	1.22	0.934	0.855	0.708	1.42	1.07	1.02
G fixed	0.716	0.419	0.572	1.28	1.08	0.242	1.15	0.899	1.18	1.21
H fixed	0.624	0.838	0.819	1.11	1.1	0.672	0.853	1.03	0.87	1.06
I fixed	1.68	0.884	2.9	0.857	0.617	2.9	0.735	0.849	0.845	0.956
K fixed	0.266	0.506	0.32	0.772	0.957	0.249	0.685	0.528	0.715	0.87
L fixed	0.814	0.891	1.71	0.778	0.721	1.54	0.792	0.651	0.901	0.949
M fixed	1.37	0.786	1.23	0.944	0.855	0.698	0.559	0.833	0.843	1.02
N fixed	0.384	1.1	0.453	0.838	0.869	1.92	1.22	1.07	0.96	1.05
P fixed	0.293	0.783	1.11	1.39	1.72	0.391	1.4	0.927	0.974	1.08
Q fixed	1.07	0.823	0.559	0.932	0.897	0.402	1.11	0.813	1.12	0.977
R fixed	0.318	0.723	0.453	1.05	1.14	0.288	0.778	0.688	0.818	0.884
S fixed	0.849	0.886	0.485	0.822	0.943	0.422	1.14	0.958	0.838	0.834
T fixed	0.745	0.855	0.607	0.795	0.96	1.15	0.865	0.837	0.67	0.782
V fixed	1.7	0.914	2.1	0.81	0.644	1.11	0.947	0.728	0.779	0.849
W fixed	1.32	2.12	1.59	1.65	0.932	0.693	0.778	1.44	1.1	1.19
pThr fixed	1.94	2.25	0.437	1.02	1.1	3.17	1.26	1.04	0.986	0.968
pTyr fixed	4.68	7.04	1.16	1.22	1.39	2.63	1.63	1.34	1.37	1.27
